{"source": "the Human Domainome abundance scans (Beltran et al. 2025)", "parents": {"B1": {"name": "Far upstream element-binding protein 1, residues 184 to 257; numbered along this chain, Q96AE4 (parent)", "chain": "GNAVQEIMIPASKAGLVIGKGGETIKQLQERAGVKMVMIQDGPQNTGADKPLRITGDPYKVQQAKEMVLELIRD"}}, "note": "± gives the uncertainty stated by the source."}
{"variants_of": "B1", "assay": "abundance fitness (aPCA) (normalised: wild type 0, dead -1); higher = more abundant; growth selection in yeast, the domain comes from the species named", "settings": "Homo sapiens"}
{"variant": "GNAVQEIMIPASKAGLVIGKGGETIKQLQERAGVKMVMIQDGPQNTGADKPLRITGDPYKVQQAKEMVLILIRD", "abundance fitness": "-0.432 ± 0.058"}
{"variant": "GNAVQEIMIPASKAGLVIGKGGETIKQLQERAGVKMVMIQDGPQNTGADKPLRITGDPYKVQQAKEMVLWLIRD", "abundance fitness": "-0.239 ± 0.037"}
{"variant": "GNAVQEIMIPASKAGLVIGKGGETIKQLQERAGVKMVMIQDGPQNTGADKPLRITGDPYKVQQAKEMVLALIRD", "abundance fitness": "-0.04 ± 0.033"}
{"variant": "GNAVQEIMIPASKAGLVIGKGGETIKQLQERAGVKMVMIQDGPQNTGADKPLRITGDPYKVQQAKEMVLERIRD", "abundance fitness": "-0.087 ± 0.027"}
{"variant": "GNAVQEIMIPASKAGLVIGKGGETIKQLQERAGVKMVMIQDGPQNTGADKPLRITGDPYKVQQAKEMVLECIRD", "abundance fitness": "-0.048 ± 0.041"}
{"variant": "GNAVQEIMIPASKAGLVIGKGGETIKQLQERAGVKMVMIQDGPQNTGADKPLRITGDPYKVQQAKEMVLEQIRD", "abundance fitness": "-0.082 ± 0.043"}
{"variant": "GNAVQEIMIPASKAGLVIGKGGETIKQLQERAGVKMVMIQDGPQNTGADKPLRITGDPYKVQQAKEMVLEHIRD", "abundance fitness": "-0.102 ± 0.051"}
{"variant": "GNAVQEIMIPASKAGLVIGKGGETIKQLQERAGVKMVMIQDGPQNTGADKPLRITGDPYKVQQAKEMVLEAIRD", "abundance fitness": "-0.1 ± 0.032"}
{"variant": "GNAVQEIMIPASKAGLVIGKGGETIKQLQERAGVKMVMIQDGPQNTGADKPLRITGDPYKVQQAKEMVLEEIRD", "abundance fitness": "-0.089 ± 0.036"}
{"variant": "GNAVQEIMIPASKAGLVIGKGGETIKQLQERAGVKMVMIQDGPQNTGADKPLRITGDPYKVQQAKEMVLENIRD", "abundance fitness": "-0.242 ± 0.049"}
{"variant": "GNAVQEIMIPASKAGLVIGKGGETIKQLQERAGVKMVMIQDGPQNTGADKPLRITGDPYKVQQAKEMVLEMIRD", "abundance fitness": "-0.031 ± 0.04"}
{"variant": "GNAVQEIMIPASKAGLVIGKGGETIKQLQERAGVKMVMIQDGPQNTGADKPLRITGDPYKVQQAKEMVLEFIRD", "abundance fitness": "-0.078 ± 0.045"}
{"variant": "GNAVQEIMIPASKAGLVIGKGGETIKQLQERAGVKMVMIQDGPQNTGADKPLRITGDPYKVQQAKEMVLETIRD", "abundance fitness": "-0.066 ± 0.035"}
{"variant": "GNAVQEIMIPASKAGLVIGKGGETIKQLQERAGVKMVMIQDGPQNTGADKPLRITGDPYKVQQAKEMVLEVIRD", "abundance fitness": "-0.01 ± 0.03"}
{"variant": "GNAVQEIMIPASKAGLVIGKGGETIKQLQERAGVKMVMIQDGPQNTGADKPLRITGDPYKVQQAKEMVLEKIRD", "abundance fitness": "-0.001 ± 0.041"}
{"variant": "GNAVQEIMIPASKAGLVIGKGGETIKQLQERAGVKMVMIQDGPQNTGADKPLRITGDPYKVQQAKEMVLEGIRD", "abundance fitness": "-0.282 ± 0.027"}
{"variant": "GNAVQEIMIPASKAGLVIGKGGETIKQLQERAGVKMVMIQDGPQNTGADKPLRITGDPYKVQQAKEMVLEIIRD", "abundance fitness": "0.025 ± 0.048"}
{"variant": "GNAVQEIMIPASKAGLVIGKGGETIKQLQERAGVKMVMIQDGPQNTGADKPLRITGDPYKVQQAKEMVLESIRD", "abundance fitness": "-0.218 ± 0.031"}
{"variant": "GNAVQEIMIPASKAGLVIGKGGETIKQLQERAGVKMVMIQDGPQNTGADKPLRITGDPYKVQQAKEMVLEDIRD", "abundance fitness": "-0.389 ± 0.046"}
{"variant": "GNAVQEIMIPASKAGLVIGKGGETIKQLQERAGVKMVMIQDGPQNTGADKPLRITGDPYKVQQAKEMVLEPIRD", "abundance fitness": "-0.481 ± 0.042"}
{"variant": "GNAVQEIMIPASKAGLVIGKGGETIKQLQERAGVKMVMIQDGPQNTGADKPLRITGDPYKVQQAKEMVHELIRD", "abundance fitness": "-0.073 ± 0.047"}
{"variant": "GNAVQEIMIPASKAGLVIGKGGETIKQLQERAGVKMVMIQDGPQNTGADKPLRITGDPYKVQQAKEMVVELIRD", "abundance fitness": "-0.082 ± 0.032"}
{"variant": "GNAVQEIMIPASKAGLVIGKGGETIKQLQERAGVKMVMIQDGPQNTGADKPLRITGDPYKVQQAKEMVNELIRD", "abundance fitness": "0.019 ± 0.046"}
{"variant": "GNAVQEIMIPASKAGLVIGKGGETIKQLQERAGVKMVMIQDGPQNTGADKPLRITGDPYKVQQAKEMVPELIRD", "abundance fitness": "-0.346 ± 0.038"}
{"variant": "GNAVQEIMIPASKAGLVIGKGGETIKQLQERAGVKMVMIQDGPQNTGADKPLRITGDPYKVQQAKEMVKELIRD", "abundance fitness": "-0.028 ± 0.035"}
{"variant": "GNAVQEIMIPASKAGLVIGKGGETIKQLQERAGVKMVMIQDGPQNTGADKPLRITGDPYKVQQAKEMVGELIRD", "abundance fitness": "-0.018 ± 0.028"}
{"variant": "GNAVQEIMIPASKAGLVIGKGGETIKQLQERAGVKMVMIQDGPQNTGADKPLRITGDPYKVQQAKEMVMELIRD", "abundance fitness": "0.068 ± 0.04"}
{"variant": "GNAVQEIMIPASKAGLVIGKGGETIKQLQERAGVKMVMIQDGPQNTGADKPLRITGDPYKVQQAKEMVIELIRD", "abundance fitness": "-0.102 ± 0.048"}
{"variant": "GNAVQEIMIPASKAGLVIGKGGETIKQLQERAGVKMVMIQDGPQNTGADKPLRITGDPYKVQQAKEMVFELIRD", "abundance fitness": "-0.077 ± 0.051"}
{"variant": "GNAVQEIMIPASKAGLVIGKGGETIKQLQERAGVKMVMIQDGPQNTGADKPLRITGDPYKVQQAKEMVRELIRD", "abundance fitness": "0.011 ± 0.026"}
{"variant": "GNAVQEIMIPASKAGLVIGKGGETIKQLQERAGVKMVMIQDGPQNTGADKPLRITGDPYKVQQAKEMVAELIRD", "abundance fitness": "-0.01 ± 0.03"}
{"variant": "GNAVQEIMIPASKAGLVIGKGGETIKQLQERAGVKMVMIQDGPQNTGADKPLRITGDPYKVQQAKEMVSELIRD", "abundance fitness": "-0.015 ± 0.03"}
{"variant": "GNAVQEIMIPASKAGLVIGKGGETIKQLQERAGVKMVMIQDGPQNTGADKPLRITGDPYKVQQAKEMVYELIRD", "abundance fitness": "0.008 ± 0.045"}
{"variant": "GNAVQEIMIPASKAGLVIGKGGETIKQLQERAGVKMVMIQDGPQNTGADKPLRITGDPYKVQQAKEMVDELIRD", "abundance fitness": "0.016 ± 0.044"}
{"variant": "GNAVQEIMIPASKAGLVIGKGGETIKQLQERAGVKMVMIQDGPQNTGADKPLRITGDPYKVQQAKEMVEELIRD", "abundance fitness": "0.011 ± 0.034"}
{"variant": "GNAVQEIMIPASKAGLVIGKGGETIKQLQERAGVKMVMIQDGPQNTGADKPLRITGDPYKVQQAKEMVTELIRD", "abundance fitness": "-0.021 ± 0.035"}
{"variant": "GNAVQEIMIPASKAGLVIGKGGETIKQLQERAGVKMVMIQDGPQNTGADKPLRITGDPYKVQQAKEMVQELIRD", "abundance fitness": "0.003 ± 0.036"}
